Results on 1 molecule are retold here after patent US20200369754A1 (published 2020).

The test addresses T1, Tau peptide A6940 (biotin (bound via biotin to a streptavidin biosensor in the Octet assay; position of the biotin not stated)).
T1 peptide: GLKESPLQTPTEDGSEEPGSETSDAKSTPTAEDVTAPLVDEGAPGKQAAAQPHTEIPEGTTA
Description: ITC.

B1: CBTAU-28.1 (S32R[VL];E35K[VL]) (antibody, V domains shown)
VH: QVQLQQSGAEVKKPGESLKISCEASGYSFTNYWIGWVRQMPGKGLEWMGIIYPGDSDTRYSPPFQGQVTITADRSITTAYLEWSSLKASDTAMYYCARVGRPSKGGWFDPWGQGTLVTVSS
VL: DIQMTQSPDSLAVSLGERATINCESSQTLLYRSNKKNYLAWYQQKPGQPPKLLISWASTPESGVPDRFSGSGSGTSFTLTISSLQAEDVAVYYCQQYYNSPYTFGQGTRLEIK
The term Kd denotes the equilibrium constant for the complex coming apart. Low values mean tighter binding, high ones weaker binding. In turn, B1 had a Kd of 220 nM.
